In the DeepSol protein solubility set:

Assay: soluble on expression in E. coli; label from the status in PepcDB or PDB records

Row | Sequence | soluble on expression in E. coli
1 | MSLKEENYRNQVTEDFEQKKQALPHGDLFTVFSNPDLSVYEQEALMFLYAYMPIGDVTDYSGDYYLENVRLSGQTRTEMPWGDLIPDELFRHFVLPIRVNNENLDDSRRVFYGELKDRVKHLSMKDAILEVNHWCHEKVVYRPSDARTSSPLASVKTAYGRCGEESTFTVAALRSVGIPARQVYTPRWAHTDDNHAWVEAWADGQWYFFGACEPEPVLNLGWFNAPASRGMLMHTKVFGRYTGPEEIMLETPNYTEINVIDNYAPTAKATVTVTDTEGHPVSGAKVEFKIYNYAEFYTVATKYTDAEGKAFLTAGKGDMLVWASRDGKFGYAKLSFGKEDALKLSLDKKVGESYTLPMDIVPPVEGANLPEVTPEQRAENDHRMTQEDSIRNAYVATMMTDEQAKEWVNGLYGNILQPETMKDKLAAFLVASRGNHQTLKDFLSAIRKEKKHISWEEMRGMWLLENISAKDLRDVTLDVLNDHLKNTSDGEKTDTDLVKRALLNPRIANEMLTPYKKILYDAISEAVLKSAPVDAAHDAKALIEWCRKEIKIDNELNSQQIPVSPMGVWKSRVADEKSRDIFFVAAARSIGIPAWIDEVTGKVQYVSDGLSPQDVNFETSQSTQSCTGMLKASYTPIRSLSDPKYYSHFTISKFKNGTFQLLNYDEGDVDMGGGATWSNLLKNGVKLDEGYYMMVTGTRLASGAVLSNTTFFTIEPDKTTTVDLVMRESKDQVQVIGNFNSEATYRPVGGTDLQSILQTCGRGYFVVAVLGVGQEPTNHALRDIAALRSEFEQWGRKMVFLFPSEEQYKKFNTHEFKDLPSTIVYGIDVDNSIQKQIVDAMKLNQSTLPVFIIADTFNRVVFVSQGYTIGLGEQLMKVVHGEGHHHHHH | soluble
2 | MSLKEFDFIKRYLQTGTDNDVVLGIGDDAAIVRPREGFDLCFSADMLLKDRHFFADVKPEDLAWKVLAVNISDMAAMGAIPRWVLLSAALPELDEVWLKRFCGSFFGLAKKFGVTLIGGDTTKGDMAFNVTIIGELPKGRALRRDAAVAGDDIWVSGRIGMAAAALNCRLKRCVLPDEVFAECEQKLLHPEPRVGLGLALLPFARAAQDVSDGLAQDLGHILTASGKGAEIWADSLPSLSVLKDILPRAQWLSYTLAGGDDYELVFTAPESCRSRVFDAAERCGVPVTRIGKINGGCRLKVLDADGRELELHSLGFDHFGEGHHHHHH | soluble
3 | MSLKEISVVLVGIGGYGNKYVEYILREGREKGVRISGVVDPYPQNSRFYDELRSLNVPMYNTLEEFYSHHTADLAIISSPIHYHCEQTCTAVRNGSHVLCEKPAAATVKEVKKMIECREKYGKIVAIGYQWSYNPAVLKLKEDILAGKFGKPVLFKTLVLWPRDTAYYRRNSWAGKLKVNNRWVLDSVAGNATAHFLHNMLFLLGEKMEESAYPESMVAELYRANDIESFDTCALKMTVRKIPVLFFATHAVKERKGPVFEYRFEKARVICNYPEYPESEENLLVVYEDGRKEIYGPTDHGSMRKLWVVVDAARGRKEFICTLESAMAHTIAINGAHVSMKEIQDFPTELKRVEGEPPMIWVEGLKEAMERAYEEEKIFSELNLPWAKRGEEVKLENFEGLEGEITEGHHHHHH | soluble
4 | MSLKEVRYAMIHDESRCNGCNICARACRKTNHVPAQGSRLSIAHIPVTDNDNETQYHFFRQSCQHCEDAPCIDVCPTGASWRDEQGIVRVEKSQCIGCSYCIGACPYLVRYLNPVTKVADKCDFCAESRLAKGFPPICVSACPEHALIFGREDSPEIQAWLQDNKYYQYQLPGTGKPHLYRRFGQHLIKKENEGHHHHHH | not soluble
5 | MSLKFIVKPHPEIFVKSESVRKRFTKILESNIRIIVKARTQGVAVFNRRDHIEVTSNSDTYYAEVLEILTTTPGIQQVLEVQQSSFTDLHNIYEQVLELNRANLENKTFVVRAKRRGKHDFTSIELERYVGGGLNQAIASAKVKLINPDVTVQVEVVDELLNQVIARHKGLGGFPLGTQEDVLSLISGGFDSGVSSYLHIKRGSKVHYCFFNLGGPAHEIGVKQTAYYLWQKYGSSAKVRFIAIDFAPVVAEILEKIDDGQMGVVLKRMFMRTAGMVAEKFGIQALVTGEALGQVSSQTLTNLRHIDNVTDTLILRPLINWDKEDIIRLAREIGTEDFAKTMPEFCGVISKSPTVKAVKEKLEEEEAKFDFALLDQVVYNARQIDIRDIGKEGHHHHHH | soluble
6 | MSLKHSKIRIAHISDIHIGSRLDKLPQKMVNKIIEENPDLVVITGDLIDSHNVISTDLASFNAFKERNIPIYYTIGNHDIMAGEEYVSSILEYYGIIYLKNQVTQITIGDETIQLVGIDDVQSITKYNEIFNSITPSIHNNIYTILLHHRPQGYKTSVQSGQIDLQLAGHTHDGQVFPFNYIVPLFHSKSYGMYHIKDTSKELILYTHPGSCAWGPHFRTAAKNLITIFSIESSNEGHHHHHH | soluble
7 | MSLKIAAFGEVMLRFTPPEYLMLEQTEQLRMNFVGTGVNLLANLAHFQLETALITKLPANRLGEAGKAALRKLGISDQWVGEKGDHIGSFFAEMGYGIRPTQVTYQNRHQSAFGISEAKDYDFEAFLAEVDMVHICGISLSLTEKTRDAALILAQKAHAYQKKVCFDFNYRPSLNTANSALFMRQQYERILPYCDIVFGSRRDLVELLGFIPREDLEGEAQETELIQRFMSQYNLEWFAGTTRSHSQNQNYLSGYLYTQNEYQQSEKRPLLNLDRIGAGDAYAAGILYGYSQNWSLEKAVTFATVNGVLAHTIQGDIPLTTVKQVNHVLEHPNIDLIREGHHHHHH | soluble
8 | MSLKIAVTGGTGFLGQYVVESIKNDGNTPIILTRSIGNKAINDYEYRVSDYTLEDLINQLNDVDAVVHLAATRGSQGKISEFHDNEILTQNLYDACYENNISNIVYASTISAYSDETSLPWNEKELPLPDLMYGVSKLACEHIGNIYSRKKGLCIKNLRFAHLYGFNEKNNYMINRFFRQAFHGEQLTLHANSVAKREFLYAKDAAKSVIYALKQEKVSGTFNIGSGDALTNYEVANTINNAFGNKDNLLVKNPNANEGIHSSYMDSSKAKELLDFSTDYNFATAVEEIHLLMRGLDDVPLWYEGHHHHHH | soluble
9 | MSLKIAVVQFPGSNCERETMLAVQRAGMTPVEFLWNDSSQKLREMDGYIIIGGFSYEDRSRAGIIAALDPVMKEIKLQSELGKPVLGICNGAQILVETGLVPGLKNYQIGMALTENKRIQDGKILGTGFYNSWIHMRTGDRVRQNAFTRYLSKDSVLSIPAAHAEGRFVMPVKLLQEIEEEGLNAFQYCDAQGNRDDNFPVNPNGSLRNIAAIINKAGNVMAIMPHPERTFAGDPIFHSMKEYIKEKKTFKQQTLSYQPEPVKIIPYDKKDNAHELIVKLIITDNAALTVQNTLRQLGIPVTVNRMMYWHVDTNFPETIEKIKQTGVLYNDRKEYLVTSEHIFSSAAKAFLVKSKDDMIGQQKLQMLRDHFSIDGVDAIHHGVLWMFSSENVKIQELAESILATNIIFNPNAHICYEYQCPEGHHHHHH | soluble
10 | MSLKILVLGIGNILFGDEGIGVHLSNLLKVNYRFEGPHQVDVIDGGTLAQLLIPLITSYDYVIVIDCVDAGGGKIGEVYFFDFDNVPNVITWQGSAHEVEMLQTLRMTEVNGDLPPVKIVGVIPSIIGSETAFDLSKEVAEASVTMEKIVLNHLQELGVEITRIDSKTIDEIAPLSYKGEGHHHHHH | soluble
11 | MSLKIRLPEMIDYFRKENGWTMKEFGEKLGKSESAISKWIKGVRSPMVEDFDKMVNLFNTDPDTLMYGASDLSTTLSEINKISSQLEEPRQKVVLNTATNQLDEQNQEKKKESKVIPINKIPDDLPPYISRKILENFVMPTNTMEYEPDEDMVDVPILGRIAAGLPLDAVENFDGTRPVPAHFLSSARDYYWLMVDGHSMEPKIPFGSYVLIEAVPDVTDGTIGAVLFQDDCQATLKKVYHEIDCLRLVSINKEFKDQFATQDNPAAVIGQAVKVEIDLEGHHHHHH | soluble
12 | MSLKIVIIGASFAGISAAIASRKKYPQAEISLIDKQATVGYLSGGLSAYFNHTINELHEARYITEEELRRQKIQLLLNREVVAMDVENQLIAWTRKEEQQWYSYDKLILATGASQFSTQIRGSQTEKLLKYKFLSGALAAVPLLENSQTVAVIGAGPIGMEAIDFLVKMKKTVHVFESLENLLPKYFDKEMVAEVQKSLEKQAVIFHFEETVLGIEETANGIVLETSEQEISCDSGIFALNLHPQLAYLDKKIQRNLDQTIAVDAYLQTSVPNVFAIGDCISVMNEPVAETFYAPLVNNAVRTGLVVANNLEEKTHRFIGSLRTMGTKVGDYYLASTGLTETEGLFFPQTLASIIVRQPAPPLQHGTEILGKLIYDKVTQRVLGAQLCSKNNCLEKINTLALSIQTGQTLTDLLQKDYFYQPSLTNIYDITNLMGASAYWRENDEGHHHHHH | soluble
13 | MSLKIVLTGSIGRINQTLVPKLTHAGHEVTVISHQATRSSLIKVFRATPAIGRLDDEAFLTKTFMGADVVYLMVTGIAASDDLYTAAKRQADIYAAAIKAAGVKRVVNLSSVGADLGPEVGALYMYHIIEQTLTTALPDVDLTFIRPTAMYYNLLSSVPTVKKSHRIYTNANLAVKNVWVAPVDVTTVLIKALTEPTPGQTVTYVASDEKTYLEVASALSQALKMPDLRVSQVPDEVMQDHLVTAGTPVAFAREYVKTVAYQRDHDFYADYRAHQPRLGDVKLADFAEGHHHHHH | not soluble
14 | MSLKKIDGHAHIVDTIAGFNGKGRLNALGNGYAIWDDGDLIKLIPDEYGDKAFTAEAFLKYMDANGVDKAVILQGHLNGYQNYYTHLAIKRYPERFTGAFSVDPFADNAMQIVKRHVEVLGFRAIKFEISQGGGIHGYRGQKTPFRLDTDPHVSRILTYLLDYPGFVVTVDYGNWDQISHQPDAIANLARLYTSLDFVVCHLSFPHVEHSNRLRAELNMWKNFNNIYTDISAIQDIDAPDSFPFPKSEQNVRIAKEVLGAKRIIWGTDSPWSATFNTYEELATWLENVDIFSQEELEDVMYNNAERVYFKEEHVKANRAGIDDTTKELNLYEGHHHHHH | soluble
15 | MSLKKIIITGALGQIGTELVIKCRERYGTENVLATDIRKPEPHSPVKNGPFEILDVTDRNRLFETVRYFNADTLMHMAALLSATAEKKPLVAWDLNMGGLINTLEAARRYQLKYFTPSSIGAFGISTPKVNTPQLTIQQPTTMYGINKVTGELLCQYYYVKFGVDTRSVRFPGLISHVKEPGGGITDYAVDMYFKAVRKGHYTSYINRYTYMDMMYMEDAIDAIIKLMEEDSVKLKTRNGYNLSAMSIEPEMLKQAIQVYYPDFTLDYDIDLERQDIALSWPDSIDTSCAQEEWGFDPKYDLPTMTKVMLEAIEKKQKEEGHHHHHH | soluble
16 | MSLKKILIIVPDGGMLFESAGIADILMQANRLHPEGAREICYQVKLATTQPHQVIHGQSGLNLLADHRLHEIDPREPLDTIMITGRGQNPQEGMAVVDWLRLAAPHARRIVSICGGAMLLAQTGLLDGRRATTHWKLLETMQAEFPQIRVEGGPLYIQDEHIWTSGGVSSGFDLTLALVEEDYGFSLARDIAQDFVMYLRRPGGQLQFSRYNLQQTATQGPINDLLAWLLENLTADLSVDKLAEKVAMSPRNFTRVFTRETGASPARYVAEARLAAARQRLEQTHETLDRIAEQTGFGSSINLRRLFEKQLNLTPGEYRQRFHCRKMAEGHHHHHH | soluble
17 | MSLKKINFGIVGLGRLGRAHAENLAFKIPNANLLAVCSIDKSQVDEVQKAWNIPYGYTDFDEMLKNKELDAIFIASPSGFHCEQIEKALDAGFHVFSEKPLGLYLDDAVRAMKAVNSHPNQIFMLGFMRRYDKSYAYAKKKIEEGAIGKPVLVRCYGLDPAKALPSFLKFAKDSYSGGLFLDMAIHDIDLARWYLDSEADELWAIGGAYGHKEFDEINDAETGAAMVKFKNGTMALLVAGRNCAHGYHIETEIIGTEGTLRIGTTPDKNLVTVFDSRGVNKECAGGFLERFEDAYLAEVKEFVDCVLENRKPAVTVEDGVLSTIVGYACKESFETGELVKVNYEGYDKLIKEGHHHHHH | soluble
